Data as given in paper PMC10700182, “A Bacterial Quorum Sensing Regulated Protease Inhibits Host Immune Responses by Cleaving Death Domains of Innate Immune Adaptors” (Advanced Science, 2023).

Molecular target: the molecule itself
Assay: native gel or EMSA

B1: Myd88 DD^20-117-SNAP (domain or fragment)
chain: LPLAALNMRVRRRLSLFLNVRTQVAADWTALAEEMDFEYLEIRQLETQADPTGRLLDAWQGRPGASVGRLLELLTKLGRDDVLLELGPSIEEDCQKYI
modifications: benzylguanine dye (BG-647 or BG-488, AlexaFluor) on the SNAP tag
notes: also called MyD88 Death domain; MyD88 DD SNAP; source: E. coli BL21(DE3), purified (Ni-NTA agarose)
  binding result: binds
